Source: the supplement of paper PMC10065799, “High-throughput profiling of sequence recognition by tyrosine kinases and SH2 domains using bacterial peptide display” (eLife, 2023)

What was measured:
Grb2 SH2 = Grb2 SH2 (UniProt P62993); experiment: SH2 binding enrichment of the phosphorylated peptide, bacterial display (enrichment ratio); higher = better substrate or ligand; peptides without Tyr show the background
c-Src SH2 = experiment: as above
SHP2-C SH2 = experiment: as above
EPHB2 = EPHB2 (UniProt P29323); experiment: phosphorylation enrichment, bacterial display (enrichment ratio); higher = better substrate or ligand; peptides without Tyr show the background
Sequence of EPHB2 (P29323 whole entry, looked up): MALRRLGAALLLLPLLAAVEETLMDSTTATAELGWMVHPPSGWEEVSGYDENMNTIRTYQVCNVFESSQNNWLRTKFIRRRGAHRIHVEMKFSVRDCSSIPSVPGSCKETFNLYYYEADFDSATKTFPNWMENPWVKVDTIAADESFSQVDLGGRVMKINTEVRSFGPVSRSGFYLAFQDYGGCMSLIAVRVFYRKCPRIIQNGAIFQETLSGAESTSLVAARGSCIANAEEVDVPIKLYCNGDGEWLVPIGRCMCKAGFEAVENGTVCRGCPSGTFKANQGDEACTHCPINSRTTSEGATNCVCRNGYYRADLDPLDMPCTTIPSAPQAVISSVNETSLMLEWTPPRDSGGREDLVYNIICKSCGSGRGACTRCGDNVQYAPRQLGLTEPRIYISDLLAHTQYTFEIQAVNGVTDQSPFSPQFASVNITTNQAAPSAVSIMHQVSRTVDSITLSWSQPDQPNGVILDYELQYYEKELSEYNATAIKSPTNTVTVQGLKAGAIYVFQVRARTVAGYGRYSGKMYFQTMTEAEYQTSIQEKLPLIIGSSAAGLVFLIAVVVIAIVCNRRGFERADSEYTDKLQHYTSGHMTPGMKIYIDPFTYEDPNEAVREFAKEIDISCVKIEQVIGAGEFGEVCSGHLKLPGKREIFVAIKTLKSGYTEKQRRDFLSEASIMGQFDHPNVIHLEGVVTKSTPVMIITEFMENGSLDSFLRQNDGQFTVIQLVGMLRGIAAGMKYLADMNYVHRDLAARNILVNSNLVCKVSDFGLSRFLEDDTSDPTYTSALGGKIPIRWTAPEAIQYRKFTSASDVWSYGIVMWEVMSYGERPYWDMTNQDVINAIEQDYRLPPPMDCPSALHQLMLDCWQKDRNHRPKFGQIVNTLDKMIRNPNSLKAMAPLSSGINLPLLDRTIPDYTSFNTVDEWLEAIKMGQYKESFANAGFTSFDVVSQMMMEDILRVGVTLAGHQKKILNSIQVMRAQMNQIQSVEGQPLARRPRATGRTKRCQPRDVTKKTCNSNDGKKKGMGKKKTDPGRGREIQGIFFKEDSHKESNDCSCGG

EPHB1 = EPHB1 (UniProt P54762); experiment: as above
Sequence of EPHB1 (P54762 whole entry, looked up): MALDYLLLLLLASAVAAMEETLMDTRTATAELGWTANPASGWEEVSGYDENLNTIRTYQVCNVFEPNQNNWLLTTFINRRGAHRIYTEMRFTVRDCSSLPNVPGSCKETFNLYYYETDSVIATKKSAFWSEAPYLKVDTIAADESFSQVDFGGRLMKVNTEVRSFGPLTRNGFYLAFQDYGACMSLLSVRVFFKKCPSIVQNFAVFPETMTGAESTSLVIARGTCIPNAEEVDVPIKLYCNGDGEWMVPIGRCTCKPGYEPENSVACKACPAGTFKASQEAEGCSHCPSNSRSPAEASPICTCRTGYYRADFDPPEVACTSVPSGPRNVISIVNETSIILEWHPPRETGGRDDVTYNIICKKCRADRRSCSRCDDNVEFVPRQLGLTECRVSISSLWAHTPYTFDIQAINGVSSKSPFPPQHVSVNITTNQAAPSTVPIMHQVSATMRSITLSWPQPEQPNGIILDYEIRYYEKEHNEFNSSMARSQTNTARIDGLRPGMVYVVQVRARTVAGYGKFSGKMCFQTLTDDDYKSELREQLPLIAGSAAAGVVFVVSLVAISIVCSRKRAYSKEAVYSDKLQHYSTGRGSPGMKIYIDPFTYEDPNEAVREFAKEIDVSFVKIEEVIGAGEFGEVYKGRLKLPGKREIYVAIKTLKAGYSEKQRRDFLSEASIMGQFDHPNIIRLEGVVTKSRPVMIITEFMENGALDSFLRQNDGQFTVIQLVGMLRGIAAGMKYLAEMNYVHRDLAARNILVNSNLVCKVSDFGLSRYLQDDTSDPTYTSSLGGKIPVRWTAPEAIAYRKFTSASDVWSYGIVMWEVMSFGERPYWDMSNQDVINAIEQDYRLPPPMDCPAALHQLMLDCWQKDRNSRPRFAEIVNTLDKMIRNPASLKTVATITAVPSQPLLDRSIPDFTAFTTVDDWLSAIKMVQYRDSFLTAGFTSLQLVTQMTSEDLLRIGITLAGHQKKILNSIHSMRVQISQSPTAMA

FGFR3 = FGFR3 (UniProt P22607); experiment: as above
Sequence of FGFR3 (P22607 whole entry, looked up): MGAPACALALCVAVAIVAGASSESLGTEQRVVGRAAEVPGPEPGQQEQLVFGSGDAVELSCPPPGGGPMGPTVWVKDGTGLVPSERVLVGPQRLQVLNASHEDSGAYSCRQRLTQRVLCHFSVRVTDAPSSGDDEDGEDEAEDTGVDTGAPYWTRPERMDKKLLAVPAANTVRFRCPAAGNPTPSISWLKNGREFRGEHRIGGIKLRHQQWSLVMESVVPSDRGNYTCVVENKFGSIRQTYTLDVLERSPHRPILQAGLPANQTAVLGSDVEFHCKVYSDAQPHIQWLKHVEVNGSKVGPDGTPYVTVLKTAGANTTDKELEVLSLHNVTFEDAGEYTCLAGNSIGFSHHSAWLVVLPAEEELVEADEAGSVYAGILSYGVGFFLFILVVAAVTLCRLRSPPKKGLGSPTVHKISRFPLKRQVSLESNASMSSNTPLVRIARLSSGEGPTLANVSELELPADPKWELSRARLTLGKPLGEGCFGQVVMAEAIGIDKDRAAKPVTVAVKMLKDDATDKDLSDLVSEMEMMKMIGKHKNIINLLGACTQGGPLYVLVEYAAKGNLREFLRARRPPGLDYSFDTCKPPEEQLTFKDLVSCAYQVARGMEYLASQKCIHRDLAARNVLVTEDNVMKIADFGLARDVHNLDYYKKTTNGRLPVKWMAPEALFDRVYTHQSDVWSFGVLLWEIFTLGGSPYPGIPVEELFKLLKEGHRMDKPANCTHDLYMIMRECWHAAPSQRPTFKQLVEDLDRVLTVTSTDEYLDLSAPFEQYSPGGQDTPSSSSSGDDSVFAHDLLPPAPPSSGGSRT

MERTK = MERTK (UniProt Q12866); experiment: as above
Sequence of MERTK (Q12866 whole entry, looked up): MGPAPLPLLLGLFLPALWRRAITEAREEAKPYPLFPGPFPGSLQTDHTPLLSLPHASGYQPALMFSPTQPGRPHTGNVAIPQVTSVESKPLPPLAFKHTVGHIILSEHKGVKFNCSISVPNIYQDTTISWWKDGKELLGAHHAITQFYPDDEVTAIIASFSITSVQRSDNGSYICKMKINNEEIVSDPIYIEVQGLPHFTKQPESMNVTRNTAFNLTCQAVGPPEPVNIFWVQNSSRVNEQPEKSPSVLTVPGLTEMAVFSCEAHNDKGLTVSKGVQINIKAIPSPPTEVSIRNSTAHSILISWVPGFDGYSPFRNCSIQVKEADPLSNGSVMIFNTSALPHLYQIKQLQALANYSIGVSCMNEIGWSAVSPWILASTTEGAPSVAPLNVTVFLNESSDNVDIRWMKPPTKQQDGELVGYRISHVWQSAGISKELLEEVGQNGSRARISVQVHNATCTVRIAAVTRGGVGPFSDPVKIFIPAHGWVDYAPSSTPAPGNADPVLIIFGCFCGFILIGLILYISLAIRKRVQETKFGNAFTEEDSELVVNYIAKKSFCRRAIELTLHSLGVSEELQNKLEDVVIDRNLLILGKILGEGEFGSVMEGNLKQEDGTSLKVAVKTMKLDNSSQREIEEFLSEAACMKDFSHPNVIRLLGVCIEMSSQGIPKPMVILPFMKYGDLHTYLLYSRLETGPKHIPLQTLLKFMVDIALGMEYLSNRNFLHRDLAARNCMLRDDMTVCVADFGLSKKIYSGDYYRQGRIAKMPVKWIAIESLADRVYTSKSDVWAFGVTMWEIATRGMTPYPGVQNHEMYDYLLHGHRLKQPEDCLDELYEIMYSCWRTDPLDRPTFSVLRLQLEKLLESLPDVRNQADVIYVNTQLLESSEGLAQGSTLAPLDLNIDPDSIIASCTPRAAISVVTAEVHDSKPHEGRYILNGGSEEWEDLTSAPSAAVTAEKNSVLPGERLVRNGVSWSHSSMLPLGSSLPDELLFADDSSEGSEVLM

c-Src = experiment: as above
c-Abl (mouse) = experiment: as above
Hck = Hck (UniProt P08631); experiment: as above
Sequence of Hck (P08631 whole entry, looked up): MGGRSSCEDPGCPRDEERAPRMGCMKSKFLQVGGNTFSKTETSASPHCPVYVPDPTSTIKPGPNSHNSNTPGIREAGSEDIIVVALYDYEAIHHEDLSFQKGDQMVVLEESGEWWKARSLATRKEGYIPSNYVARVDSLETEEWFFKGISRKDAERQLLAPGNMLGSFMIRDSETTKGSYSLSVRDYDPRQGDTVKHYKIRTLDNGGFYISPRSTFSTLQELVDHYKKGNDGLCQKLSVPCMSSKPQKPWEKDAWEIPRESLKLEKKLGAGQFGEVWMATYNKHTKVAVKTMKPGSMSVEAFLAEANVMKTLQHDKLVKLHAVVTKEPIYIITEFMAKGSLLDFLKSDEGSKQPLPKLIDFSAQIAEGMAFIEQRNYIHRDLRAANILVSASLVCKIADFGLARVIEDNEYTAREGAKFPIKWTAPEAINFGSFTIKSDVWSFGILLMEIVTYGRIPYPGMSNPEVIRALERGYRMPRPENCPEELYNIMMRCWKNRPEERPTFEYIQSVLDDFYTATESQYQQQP

Jak2 = Jak2 (UniProt O60674); experiment: as above
Fes = Fes (UniProt P07332); experiment: as above
Fyn = Fyn (UniProt P06241); experiment: as above
Fer (mouse) = experiment: as above
AncSZ = experiment: as above
FGFR1 = FGFR1 (UniProt P11362); experiment: as above
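Wherever SH2 binding enrichment of the phosphorylated peptide, bacterial display is given: peptide library displayed on the E. coli surface as eCPX fusions, selected cells deep-sequenced, score is each peptide's frequency after selection divided by its frequency in the input.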
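Wherever phosphorylation enrichment, bacterial display is given: 11-residue human phosphosite peptides and single-mutation variants displayed on the E. coli surface, counted by deep sequencing, each peptide's frequency after selection divided by its frequency in the unselected input library; frequency after pTyr selection over input frequency; kinase dosed for 20-30% of maximal phosphorylation in three min.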

Sequence of Grb2 SH2 (P62993 whole entry, looked up): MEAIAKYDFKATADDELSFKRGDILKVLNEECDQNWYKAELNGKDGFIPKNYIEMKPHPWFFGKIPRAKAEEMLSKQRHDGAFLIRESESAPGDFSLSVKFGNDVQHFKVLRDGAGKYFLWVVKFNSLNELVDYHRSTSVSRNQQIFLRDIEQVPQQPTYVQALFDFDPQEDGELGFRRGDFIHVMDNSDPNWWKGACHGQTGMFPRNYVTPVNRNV

Row | Sequence | SH2 binding enrichment (Grb2 SH2) | SH2 binding enrichment (c-Src SH2) | SH2 binding enrichment (SHP2-C SH2) | phosphorylation enrichment (EPHB2) | phosphorylation enrichment (EPHB1) | phosphorylation enrichment (FGFR3) | phosphorylation enrichment (MERTK) | phosphorylation enrichment (c-Src) | phosphorylation enrichment (c-Abl (mouse)) | phosphorylation enrichment (Hck) | phosphorylation enrichment (Jak2) | phosphorylation enrichment (Fes) | phosphorylation enrichment (Fyn) | phosphorylation enrichment (Fer (mouse)) | phosphorylation enrichment (AncSZ) | phosphorylation enrichment (FGFR1)
1 | EPNSRYTYKLE [USH2A_Y3745] | 1.02 | 0.663 | 0.768 | 0.46 | 0.537 | 0.534 | 0.384 | 0.501 | 0.753 | 0.439 | 0.628 | 0.895 | 0.492 | 0.27 | 0.684 | 0.438
2 | EPSLDYMVTKI [CPS1_Y768] | 1.05 | 0.379 | 0.914 | 0.727 | 0.756 | 0.797 | 0.469 | 0.582 | 0.606 | 0.566 | 1.05 | 1.14 | 0.646 | 0.78 | 1.22 | 0.814
3 | EQDRAYLEGTC [HLA-C_Y183_L180D] | 0.939 | 0.771 | 0.868 | 0.574 | 0.549 | 0.663 | 0.454 | 0.519 | 0.84 | 0.507 | 0.978 | 1.14 | 0.511 | 0.499 | 1.1 | 0.521
4 | EQKKNYNAMKK [SCN5A_Y1495_Y1494N] | 0.895 | 0.597 | 0.973 | 0.561 | 0.427 | 0.826 | 0.44 | 0.524 | 1.1 | 0.489 | 1.01 | 1.07 | 0.394 | 0.538 | 0.847 | 0.643
5 | EQKKYYNAMKK [SCN5A_Y1495] | 0.818 | 0.85 | 1.07 | 0.332 | 0.368 | 0.4 | 0.305 | 0.34 | 0.519 | 0.34 | 0.613 | 0.649 | 0.3 | 0.353 | 0.551 | 0.342
6 | EQLLDYTRTVQ [INPP5E_Y439_R435Q] | 0.904 | 0.438 | 0.732 | 0.569 | 0.557 | 0.709 | 0.475 | 0.438 | 0.614 | 0.542 | 0.976 | 0.815 | 0.469 | 0.494 | 0.969 | 0.515
7 | EREFKYDAHNF [OAT_Y50_G51D_YF] | 0.803 | 0.543 | 0.629 | 0.445 | 0.624 | 0.693 | 0.512 | 0.477 | 0.645 | 0.558 | 0.914 | 1.02 | 0.361 | 0.832 | 0.915 | 0.643
8 | ERPGVHTNVVE [F11_Y608_Y608H] | 0.849 | 0.491 | 0.605 | 0.769 | 0.598 | 0.754 | 0.483 | 0.388 | 0.717 | 0.394 | 0.777 | 0.964 | 0.517 | 0.474 | 0.794 | 0.46
9 | ERRLIYTSDPK [VPS13D_Y864] | 0.872 | 0.507 | 0.663 | 0.431 | 0.307 | 0.372 | 0.444 | 0.437 | 0.472 | 0.39 | 0.586 | 0.64 | 0.444 | 0.43 | 0.563 | 0.486
10 | ESAAIYNPVIY [RHO_Y301_K296E] | 0.758 | 0.464 | 0.553 | 0.944 | 0.995 | 1.88 | 3.45 | 7.21 | 1.15 | 9.21 | 0.793 | 1.26 | 8.88 | 17.5 | 1.01 | 1.99
11 | ETAENYLGYTA [HSPA9_Y181_H184Y] | 0.882 | 0.557 | 0.7 | 0.684 | 0.674 | 0.784 | 0.516 | 0.678 | 0.691 | 0.751 | 0.839 | 1.23 | 0.563 | 0.498 | 1.17 | 0.748
12 | ETEMLYGSARR [PRC1_Y464_P468R] | 0.853 | 0.495 | 0.871 | 0.451 | 0.416 | 0.601 | 0.38 | 2.81 | 0.638 | 4.55 | 0.521 | 0.78 | 2.66 | 1.27 | 0.886 | 0.429
13 | ETVHRYVELLD [AP1S3_Y87_I83T] | 0.929 | 24.5 | 1.94 | 0.654 | 0.538 | 0.746 | 0.415 | 0.461 | 0.613 | 0.52 | 0.752 | 0.997 | 0.478 | 0.435 | 0.905 | 0.591
14 | EVEPTYVVLYD [ERCC4_Y577_R576T] | 0.775 | 0.532 | 0.563 | 13.7 | 10.9 | 4.01 | 3.54 | 4.73 | 0.864 | 3 | 1.1 | 1.13 | 6 | 1.49 | 1.76 | 5.87
15 | EVESPYEVHDY [GIGYF2_Y1168] | 0.86 | 0.485 | 0.599 | 0.84 | 0.785 | 0.792 | 0.567 | 4.25 | 0.762 | 1.13 | 1.03 | 1.1 | 4.95 | 9.16 | 1.66 | 0.489
16 | EVRAQYEEIAQ [KRT76_Y361] | 0.666 | 22.5 | 0.623 | 0.641 | 0.697 | 0.98 | 0.404 | 0.388 | 0.92 | 0.614 | 1.07 | 1.22 | 0.526 | 0.977 | 1.19 | 0.611
